Molecular target: the molecule itself
Experiment: crystal structure; co-expressed and co-purified SsoGINS tetramer, 11 mg/ml in 20 mM Tris pH 8.3, 100 mM NaCl; hanging drop, 0.18 M triammonium citrate, 20%(w/v) PEG 3350, 291 K; space group P6_(3), 2.3 Å

B1: Saccharolobus solfataricus GINS51 (natural protein)
chain: MLDELVKKELSEEEITEIKLEEIIKYITLIKKSKTFVSSEIRKEELKFLSELAESLFELRLSKVLEGKVGKGFDEFIFDIFKILKQFYVDLLTGRYIIYNDKIYCIVQKPLIYNDHRVNEGDVLVLPMREALPLIIASYLTPYKIDIEEQL
notes: GINS51 of Saccharolobus solfataricus, gene amplified from genomic DNA (ATCC 35092D-5); Two copies stand in the (GINS23)2(GINS51)2 tetramer; A subdomain (alpha-helical) comes first, B subdomain (with beta-strands) second; also called SsoGINS51; Sso51
Does B1 bind?
Result: binds

Source: PMC12035558, “Structure of the Saccharolobus solfataricus GINS tetramer” (Acta Crystallographica Section F: Structural Biology …, 2025)
